B1: non-tagged Net4ΔC (gift from the Koch lab) (domain or fragment, mouse)
chain: CEKACNPRMGNLALGRKLRADTMCGQNATELFCFYSENADLTCRQPKCDKCNAAHSHLAHPPSAMADSSFRFPRTWWQSAEDVHREKIQLDLEAEFYFTHLIMVFKSPRPAAMVLDRSQDFGKTWKPYKYFATNCSATFGLEDDVVKKGAICTSRYSNPFPCTGGEVIFRALSPPYDIENPYSAKVQEQLKITNLRVRLLKRQSCPCQINDLNAKPHHFMHYAVYDFIVKGSCFCNGHADQCLPVEGFRPIKAPGAFHVVHGRCMCKHNTAGSHCQHCAPLYNDRPWEAADGRTGAPNECRTCKCNGHADTCHFDVNVWEASGNRSGGVCNNCQHNTEGQHCQRCKPGFYRDLRRPFSAPDACKACSCHPVGSAILPFSSVTFCDPSNGDCPCKPGVAGPHCDRCMVGYWGFGDYGCRPCDCAGSCDPLTGDC
B2: γ1ΔC (N-terminal fragment of laminin γ1), human, C-terminally flag-tagged (domain or fragment)
chain: QAAMDECTDEGGRPQRCMPEFVNAAFNVTVVATNTCGTPPEEYCVQTGVTGVTKSCHLCDAGQPHLQHGAAFLTDYNNQADTTWWQSQTMLAGVQYPSSINLTLHLGKAFDITYVRLKFHTSRPESFAIYKRTWEDGPWIPYQYYSGSCENTYSKANRGFIRTGGDEQQALCTDEFSDISPLTGGNVAFSTLEGRPSAYNFDNSPVLQEWVTATDISVTLNRLNTFGDEVFNDPKVLKSYYYAISDFAVGGRCKCNGHASECMKNEFDKLVCNCKHNTYGVDCEKCLPFFNDRPWRRATAESASECLPCDCNGRSQECYFDPELYRSTGHGGHCTNCQDNTDGAHCERCRENFFRLGNNEACSSCHCSPVGSLSTQCDSYGRCSCKPGVMGDKCDRCQPGFHSLTEAGCRPCSCDPSGSIDECNIETGRCVCKDNVEGFNCERCKPGFFNLESSNPRGCTP
modifications: N-glycans at N60 and N134
B3: γ1ΔC D266R (domain or fragment)
chain: QAAMDECTDEGGRPQRCMPEFVNAAFNVTVVATNTCGTPPEEYCVQTGVTGVTKSCHLCDAGQPHLQHGAAFLTDYNNQADTTWWQSQTMLAGVQYPSSINLTLHLGKAFDITYVRLKFHTSRPESFAIYKRTREDGPWIPYQYYSGSCENTYSKANRGFIRTGGDEQQALCTDEFSDISPLTGGNVAFSTLEGRPSAYNFDNSPVLQEWVTATDIRVTLNRLNTFGDEVFNRPKVLKSYYYAISDFAVGGRCKCNGHASECMKNEFDKLVCNCKHNTYGVDCEKCLPFFNDRPWRRATAESASECLP
B4: γ1ΔC Y147R (domain or fragment)
chain: B3 chain with Y114R, R233D
B5: γ1ΔC R149E (domain or fragment)
chain: B3 chain with R116E, R233D

Assay in all cases: ELISA
On the technique in general: ELISA stands for enzyme-linked immunosorbent assay.

The target in assay [1] is non-tagged Net4ΔC (gift from the Koch lab) (mouse) (UniProt Q9JI33).
For assay [2], the target named is recombinant mouse laminin 111 (Lm111) (mouse, UniProt P19137 25-3083; P02469 22-1786; P02468 34-1607).
Assay [3] concerns the target B1.

Changes are numbered by the printed parent chain. Names may count otherwise.

Experimental findings from article PMC12328585 (Nature Communications, 2025) are described below.

Regarding “γ1ΔC D285R (from UniProt P11047 37-341) (domain or fragment)”, the Kd (commonly the concentration at which binding is half-saturated) in assay [1] amounted to 1.57 nM.

For the molecule B1, the Kd in assay [2] was 0.39 ± 0.07 nM.

Take B2: in assay [3], the dissociation constant (Kd) came out at 2.93 ± 0.51 nM.

B3 registered a Kd in assay [3] of 4 ± 0.4 nM.

B4 showed a dissociation constant Kd in assay [3] of 2.28 ± 0.43 nM.

In the case of B5, in assay [3], binding was put at a Kd of 1.89 ± 0.2 nM.
